Results taken from paper PMC7325057.

System: CC(=O)N(O)CCCC[C@H](N)C(=O)O
Experiment: purified protein
Conditions: 2 mM citrate, 2 mM ATP, 15 mM MgCl2, pH 7.5, 37 °C, apparent

## hvKP IucA (Klebsiella pneumoniae subsp. pneumoniae)
  Km: 790 ± 20 µM
  kcat: 0.85 ± 0.02 s⁻¹
  kcat/Km: 1080 M⁻¹ s⁻¹
